Assay results from the supplement of paper PMC12042874.
± gives the uncertainty stated by the source.

Assay: amyloid nucleation score (Sup35N fusion, yeast selection) (log enrichment); library NNK2; higher = more nucleation; inactive = no reads after selection
Procedure, shortened: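 DiMSum was used to calculate nucleation scores as log enrichment of output over input reads, centred on the mode score of non-aggregating sequences. Sequences with fewer than 100 input reads were not scored. Input and output came from Illumina sequencing of plasmid inserts in psi-negative yeast expressing peptides of 20 random codons fused to Sup35N, induced 24 hours with 100 μM copper sulfate and then grown 7 days at 30°C on medium lacking adenine and uracil.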

Substance | amyloid nucleation score
RTISMYEELVTELRNSVM | -0.283 ± 0.33
MVIWFPLEIMIRIRSPL | -0.766 ± 0.48
SHDAYGIYRLQ | 0.696 ± 0.38
VGSFIFLLRCWLSCAIAGVQ | -0.323 ± 0.65
WSQRMLRSQEVPCSWWEIVT | 0.905 ± 0.13
RITVEKHSQCALMLHRQYCV | 1.39 ± 0.16
GYLFGSALKSDIQYHTESMF | inactive
AGLLYVSRLNWSVSQRNGVG | 0.131 ± 1
FVEGLYWVSVVILG | -1.58 ± 1
CHNYELCCRLFNSFSTNQIA | -0.468 ± 0.29
GFTRKASGADTRGRRTAVSS | 1.61 ± 0.37
KAIYPYLI | inactive
GLICRV | 0.518 ± 0.46
SHYPKGCHWGGLHSGDRKFP | 0.892 ± 0.45
QSNRKYGETHWFSTCNMHVL | 0.533 ± 0.45
KGIYIFRHLCGMDVNMGPMD | -0.764 ± 0.64
RYCFT | 1.03 ± 0.38
ADGVSSWLTVLTFSHWRVK | 1 ± 0.31
CATSISMLEHQ | 0.556 ± 0.2
REWVRYCRCWSCYYPTFFS | -0.198 ± 0.63
HCPVSVVTRHGLTVNDVRHY | -0.062 ± 0.46
GSNETPHLDALSPSALRMGH | 0.103 ± 0.63
KDAPKFIYFSQLTTKCITRY | 4.14 ± 0.044
RLKTDRLAMIPVRPKRFPGP | 0.191 ± 0.63
GQSCHYCRMTLNIDFTDWVL | -0.228 ± 0.39

Substance | amyloid nucleation score
GCDLKLGVKCLKNERRVPEF | 0.382 ± 0.8
VKWLYTLDSNFVLVFVPCLT | -0.078 ± 0.39
IWRCNPG | 1.04 ± 0.68
CRISQTFF | 1.82 ± 0.15
CRKYKLRHRADDCSMYCTRL | 3.33 ± 0.14
EFCIPKNLRSW | 0.182 ± 0.22
SFYSVTSPRWH | 1.92 ± 0.17
GTVGVGMS | 1.11 ± 0.66
LLVAEVV | 0.538 ± 0.49
SVIRSCVNIDSLVKVEWGAS | 6.717 ± 0.052
SGLTSIWQPTRTRMMSPSRR | 0.08 ± 0.79
YARTKDYVLVCLQGICAGVN | -0.14 ± 1
VVLYCFISLLKFIEIGEGHP | -1.24 ± 1.1
IKKIRYPRFLVVLN | inactive
EMSRMASNISRMKVSRASKH | 1.15 ± 0.38
SIFCGPDVVNTGPKLG | 0.751 ± 0.6
SDMDYLWLCIVRTVLNVIYR | -1.17 ± 1.1
LYMCSSVLWVGLSLV | 0.851 ± 0.56
MNQTCIRVDRLELYRYM | inactive
RGALVICCNTLSCGRGRLGD | 10.22 ± 0.074
SFGWAYSVICLFIALTRTFL | -0.123 ± 0.26
TIPVRPTMEYCTQLLTLLQ | 0.293 ± 0.47
LRIICMSTMWRKCFRGIATA | -0.195 ± 0.39
HCMYDWMNRSMGLVFDCLFL | -1.04 ± 1
YLSDNHYWCWSYESF | -0.725 ± 0.41

Substance | amyloid nucleation score
CSSENLSLLIYSIKVGNGF | 3.28 ± 0.12
RDVFVLCWDFFMVERCRDRC | 5.85 ± 0.072
ICTFYDTGLWVIYSVTRKAR | -0.057 ± 0.65
SGFSLDLLVGGPCVPDLTVR | 0.228 ± 1
MVILVLFASTVLQYTVPFWV | 0.247 ± 0.5
FYESELLSARQFSVYVSLMM | inactive
SYYELGNDLSACYFYCHRVA | -0.253 ± 0.79
FVSIVPYRFL | -1.56 ± 0.48
RAVLFAVVKQM | 0.874 ± 0.42
SGVLSLGGVQSWNSLLRWDN | -0.476 ± 0.44
AYRVWRRGVEMMRNPFLPVA | 3.6 ± 0.064
GKCYFA | -1.87 ± 0.62
NICSTGPLFWNFLFVV | 1.83 ± 0.15
SVIISVVD | -0.851 ± 0.35
IYCVRQSDGQYSSEMAHYII | 2.64 ± 0.094
YFEPSSPGVIV | inactive
LNLNR | inactive
GVSVSVYHGWLVLDRMFHNS | 4.25 ± 0.12
GLTLMSR | 1.06 ± 0.12
FMMTRKGIFELHFISRE | 0.097 ± 1.1
SAVWRHVNDLLLSR | 1.11 ± 0.4
VKFWYWAVDLDSCVRCGDGA | 6.586 ± 0.049
SYCVWCLYTSLLTLGQSASI | 0.163 ± 0.33
SLENWLCAVPLCGESLEKVW | 0.469 ± 0.41
GNGMNWPC | 2.16 ± 0.13

Substance | amyloid nucleation score
NDDKRSRLMRWETSKIRSSV | 3.89 ± 0.052
LNPIFVWFHSC | 7.23 ± 0.077
LTHSRNLRKVRTNRNNETHV | 0.005 ± 1
SPALKPLGRMEYGVSGR | 0.072 ± 0.29
NGSESAYGNSLWLCLLEAAI | inactive
LCCRCIKVIAALKLNIENHQ | 3.65 ± 0.095
TGHWMGPSDYRQRVCH | inactive
GFKAMRCLWSGVARSIVRDS | -0.242 ± 0.49
NGFMDYQLPLAARVKSSWHL | 2.97 ± 0.076
KVLATMGDIGVVLSVMLVPV | 1.33 ± 0.3
TRQKACMISKASPLGSSEYA | inactive
VVSHLGWTWGFKSMLGIRRS | -0.759 ± 0.29
DYLYCSAQFRHMRVQSPGNA | 0.885 ± 0.2
SCDRIRMCCSWCQV | 3.54 ± 0.049
NSVTNNIRSWIPHLDKGYGG | -0.487 ± 1.1
NFNMYGVFCVY | inactive
PRRNTADCIGCTDRTGRRRC | 0.6 ± 0.39
LGTEAEWCVGLMCSVKRYQM | 4.58 ± 0.068
TQRVGGIRW | 0.105 ± 0.24
QWGDYIGAASMW | -0.767 ± 0.49
VDVFPAPSHRCGLMNLCNLV | 0.969 ± 0.28
CLAFLGLLKSFMITKGW | -1.49 ± 0.78
QFTCYTVYNGYWA | 3.28 ± 0.15
SECMIRFVNYADGTFNIGHS | -0.22 ± 0.37
VTRDARRDSQGDKVV | 1.02 ± 0.17

Substance | amyloid nucleation score
YIKFDGSTWKGVVFYYEMWE | -1.12 ± 0.76
ERPWRRQRCAFKVSWVGADL | 0.632 ± 0.19
MCSPSQEVITYHSDFWNGQK | 1.18 ± 0.68
MCNFRSWGALLNKRAHGVGS | 0.307 ± 0.65
ISSNKGFVEVAVSWVPRDVR | 0.744 ± 0.38
RVHRLQTEEVMYSSGSK | 4.96 ± 0.065
CVYRASIVRSRSNYEAVWYS | 0.341 ± 0.24
MNELVIIGILMCCTDF | 8.484 ± 0.027
WLYRQFDLSLESYNWMPGIE | 3.95 ± 0.12
ELLSYRRSIKYCMGLEEPWA | -0.119 ± 0.49
FCSSSVIYQKKLA | -0.782 ± 0.24
SFYRHGFTGNGTSVRGPDRS | 0.097 ± 0.79
WRYYAGWYESWSTAGQTCTF | -0.487 ± 1.1
TVFYIYMGQDDG | 5.12 ± 0.1
AFHWMF | 0.544 ± 0.28
QNRLLDFFSEPTSRS | -1.16 ± 1.1
VAVLKGVGDSPNLAGDSKWD | 0.355 ± 0.56
YYEYGL | -0.298 ± 0.4
CGFFVNEFTDLAWSYSLAVN | -0.117 ± 0.74
TLVNCVSMWWALHSVANGNG | 3.3 ± 0.11
HCYQTDRSHIICHELLHCFV | -0.74 ± 0.49
VFSGGSPWWVANMRGAPKLL | 0.94 ± 0.2
CTHHKCVWGIWSTFSVDSEL | -0.288 ± 1.1
TYFARCFDNWTVNWCVARVC | 0.614 ± 0.57
SDCYDDKINVVQSKAVSITL | 0.075 ± 0.76

Substance | amyloid nucleation score
KSLLWHLQLLAKT | 0.174 ± 0.63
VGYLALQFLVRCMY | inactive
CFGYWHSVRARCLRKVGHRT | 0.546 ± 0.38
PDLCEFLMLYMMITLNFCIN | -0.214 ± 1
TVSNPGMPNAI | -0.557 ± 0.64
LVSRCDDACGIQTGNMV | 0.043 ± 0.33
ARPIKFYKKLYFSCMIELLR | -1.38 ± 0.54
QLAYNEDMSVVGFCYIWYYG | 6.456 ± 0.048
MWDNFPCAVVLFKLC | 0.696 ± 0.23
DESICCQEVGNSRVDSDEGR | 2.94 ± 0.12
GCIGGHRFYSPRSNSVFEVG | 3.44 ± 0.081
VFVWIGLGWVTSLLSLYTNG | inactive
AWRKRH | 0.746 ± 0.18
SAWRVCYRTNENCAPFMYVL | -1.22 ± 0.75
PVSGGVNFNNRLLITWRAFW | 0.885 ± 0.58
VCGMLTVIHWFLVIVVIDLV | 0.863 ± 0.58
SFIVQHE | 0.16 ± 0.55
FIYVSWRTWSEIVGMCFGVV | -1 ± 0.45
LLFPCFVTRSLVS | -0.871 ± 0.32
INTCIWASLYLSMAHEYRI | -0.793 ± 0.62
RSSSNWSTSGGILRYVVLPK | -0.151 ± 0.42
INHKQGCSTVWPVAKVCMLV | 0.201 ± 1
MELMNMV | -0.127 ± 0.65
VYGSCSVMLGNWCSSVFKVL | 0.174 ± 1
KMIVLK | 0.449 ± 0.41

Substance | amyloid nucleation score
RFWMNNSLNLCQLILTR | 0.333 ± 0.61
GMGQTRKCHAGGNWHVYSCR | 0.738 ± 0.47
RLFQE | -0.153 ± 1.1
ALRDFS | 0.465 ± 0.8
CLSCGLRTEDLYWDTRICSD | 1.18 ± 0.29
ARSRFSYKMRYPACGVISSR | -0.472 ± 0.79
RADVRMFLTRGLKVDFG | -0.322 ± 0.49
FVRQDYKRVRDLFPTLNFDK | -0.949 ± 0.64
LLCVGHFFLQ | inactive
LCNYLFSFEQMRNN | -0.124 ± 0.42
NYFGKLLWLSLHDTCIVTF | inactive
NSELLFLGVEWNRT | -0.142 ± 0.79
WVELVCPYSTYLLSFIASLS | 0.278 ± 0.54
EDEWMHLVRVQFQGKDRKAA | 0.92 ± 0.28
FLVLVWSRCSNLFL | 2.86 ± 0.14
SDVRLVLAASEIRYGAGCRW | 0.299 ± 0.65
WIREY | -0.43 ± 0.32
VWYINSTNYLCPLISRVQVE | -0.997 ± 0.36
IVCPFKT | -1.35 ± 0.78
FCGFNDPGRD | inactive
TYDLDLVMLRSMRVENLLWG | 0.616 ± 0.4
